The results in this text go back to US20240084003A1 (SIMCERE ZAIMING PHARMACEUTICAL, published 2024).

Assay [1] addresses T1, monkey CD22 protein (ACROBiosystems, catalog number SI2-R52Ha) (monkey, UniProt F6W485 20-688).
T1 construct: commercial protein; also called monkey CD22-ECD; monkey CD22-ECD-His
T1 sequence: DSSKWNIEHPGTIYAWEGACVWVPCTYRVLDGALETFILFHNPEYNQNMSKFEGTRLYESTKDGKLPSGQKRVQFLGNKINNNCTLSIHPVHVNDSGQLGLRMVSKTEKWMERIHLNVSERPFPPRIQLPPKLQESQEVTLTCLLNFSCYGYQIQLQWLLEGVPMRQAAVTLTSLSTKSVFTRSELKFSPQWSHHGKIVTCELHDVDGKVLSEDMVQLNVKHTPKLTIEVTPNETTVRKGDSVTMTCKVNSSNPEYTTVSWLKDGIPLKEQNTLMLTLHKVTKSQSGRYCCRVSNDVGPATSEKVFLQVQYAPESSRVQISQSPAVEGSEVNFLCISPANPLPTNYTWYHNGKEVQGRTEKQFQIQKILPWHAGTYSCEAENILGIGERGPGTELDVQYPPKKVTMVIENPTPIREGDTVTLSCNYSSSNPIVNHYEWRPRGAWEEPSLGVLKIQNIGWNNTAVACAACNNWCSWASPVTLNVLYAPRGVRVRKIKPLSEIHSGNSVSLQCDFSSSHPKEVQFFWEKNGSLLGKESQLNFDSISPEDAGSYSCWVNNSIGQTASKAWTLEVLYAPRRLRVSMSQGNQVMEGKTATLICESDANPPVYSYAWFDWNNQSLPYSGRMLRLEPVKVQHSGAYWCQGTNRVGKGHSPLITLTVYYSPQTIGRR
The assay can be described thus: ELISA, coated monkey CD22 protein, antibody 0.01 nM. In outline: (§1)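 Plates were coated overnight at 4° C with 2 μg/mL CD22 protein in PBS and blocked with PBS + 2% BSA. Chimeric antibodies were incubated for 2 h at 37° C, then HRP-labelled secondary for 2 h at 37° C. Bound antibody was read by TMB colour development (30 min, RT) stopped with 1.0 N HCl.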
(In general: In an ELISA, binding on a coated surface is turned into a signal by an enzyme label.)

Assay [2] deals with T1, monkey CD22 protein (ACROBiosystems, …). The experiment in a line: ELISA, coated monkey CD22 protein, antibody 0.00001 nM. In outline: as §1
The target is the same in assay [3]. The experiment in a line: ELISA, coated monkey CD22 protein, antibody 100 nM. The method, boiled down: as §1
Assay [4] addresses T2, CD22 on cynomolgus monkey peripheral blood B cells (cynomolgus monkey (Macaca fascicularis)).
T2 construct: whole, on cells; also called cynomolgus monkey B cells
The experiment in a line: FACS, cynomolgus PBMC, CD20+ B cells, antibody 10 nM. In outline:
(§2)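 Fresh cynomolgus PBMC isolated on Ficoll were co-incubated with chimeric antibody and anti-human CD20 (monkey cross-reactive, BV605) for 1 h at room temperature, then APC anti-human IgG Fc for 30 min in the dark. By flow cytometry, value is the percentage of antibody-positive cells within gated CD20+ B cells.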
A general note: A flow cytometer gives signals particle by particle.

Assay [5] addresses T1, monkey CD22 protein (ACROBiosystems, …). The assay can be described thus: ELISA, coated monkey CD22 protein, antibody 0.001 nM. The method, boiled down: as §1
For assay [6], the target named is T2, CD22 on cynomolgus monkey peripheral …. The experiment in a line: FACS, cynomolgus PBMC, CD20+ B cells, antibody 100 nM. In outline:
as §2

In assay [7] the target is T1, monkey CD22 protein (ACROBiosystems, …). The assay can be described thus: ELISA, coated monkey CD22 protein, antibody 0.1 nM. In outline:
as §1

In assay [8] the target is T2, CD22 on cynomolgus monkey peripheral …. The experiment in a line: FACS, cynomolgus PBMC, CD20+ B cells, antibody 1 nM. In outline:
as §2

Assay [9] deals with T1, monkey CD22 protein (ACROBiosystems, …). The assay can be described thus: ELISA, coated monkey CD22 protein, antibody 10 nM. The method, boiled down: as §1
For assay [10] the target is unchanged. The experiment in a line: ELISA, coated monkey CD22 protein, antibody 0.0001 nM. The method, boiled down: as §1

B1: F1.245.2 (antibody, human IgG1, kappa, V domains shown)
VH: EVQLQQSGAELVKPGASVKLSCTGSGFNIKDYYIHWVKQRTEQGLEWMGRIDPEDGETEYAPKFQDEATITSDTSSNTAYLQLSSLTYEDTAVYYCAREAAGYFYRGSSYGYFDVWGTGTTVTVSS
VL: DFQMTQTTSFLSASLGDRVTISCSASQDISNYLNWYQQKPDGTVKLLIYYTSSLHSGVPSRFSGSGSGTDYSLTISNLEPEDIATYYCQQYSMLPYTFGGGTKLEMER
notes: human-murine chimeric IgG1 kappa
Regarding B1, the OD450 is 0.06 OD450 in assay [1]; 0.06 OD450 in assay [2]; 0.08 OD450 in assay [3]; 0.06 OD450 in [5]; 0.06 OD450 in [7]; 0.06 OD450 in [9]. The same molecule displayed an OD450 in assay [10] of 0.06 OD450. Moreover, the “Proportion of chimeric antibody positive cells to B cells (%)” value (shortened to “Proportion … (%)”) in assay [4] worked out at 17%; in assay [6], 17%; in assay [8] it was 16%.

B2: F1.200.11 (antibody, human IgG1, kappa, V domains shown)
VH: QNQLVQSGPELKKPGETVKISCKASGYTFTTAGMQWVQKMPGKGFKWIGWINTLSGEPKYAEDFKGRFAFSLETSATTAYLQISNLKNEDTATYFCARAYYSNLYWYFDVWGTGTTVTVSS
VL: DIVMTQSQKFMSTTVGDRVTITCKASQNVVTAVAWYQQKPGQSPKVLIYSASNRYSGVPDRFTGSGSGTDFTLTISNMHSEDLANYFCHQYSSYPFTFGSGTKLEIKR
notes: as for B1
Take B2: the OD450 in [1] was 0.19 OD450; in [2], 0.06 OD450; in assay [3], 1.25 OD450; in assay [5] it was 0.08 OD450; in [7], 0.62 OD450; in assay [9], 1.23 OD450. The OD450 in assay [10] stood at 0.06 OD450. The “Proportion … (%)” value in assay [4] came out at 37%; in assay [6], 56%; in assay [8] it was 21%.

B3: F1.120.15 (antibody, human IgG1, kappa, V domains shown)
VH: QVQLQQSGPELVKPGASVKISCKASGNAFSNSWMNWVKQRPGKGLEWIGRVYSEDGDTQYNGKFRDKATLTADRSTSTAYMQLSSLTSEDSAVYFCARWLIYYGTYGAMDYWGQGTSVTVSS
VL: DIQMTQTTSSLSASLGDRVTISCRASQDINNYLNWYHQKPDGTVKLLIYFTSRPYSGVPSRFSGSGSGTDYSLTISNLEQEDIATYFCQQGNTLPWTFGGGTKLEIKR
notes: as for B1
On to B3, for which the OD450 in assay [1] came to 0.65 OD450; in assay [2] it was 0.06 OD450; in assay [3], 1.64 OD450; in [5] it was 0.16 OD450; in [7], 1.56 OD450; in assay [9], 1.9 OD450. In [10], this molecule displayed an OD450 of 0.07 OD450. Also, the “Proportion … (%)” value worked out at 86% in [4], 93% in assay [6] and 27% in [8].

B4: F1.172.13 (antibody, human IgG1, kappa, V domains shown)
VH: QVTLKESGPGILQSSQTLSLTCSFSGFSLSTSGMGVSWIRQPSGKGLEWLAHIYWDDDKRYNPSLKSRLTISKDTSRNQVFLKITSVDTADTATYYCARAPPPNWDEYYFDYWGQGTTLTVSS
VL: DIQMTQSPASLSASVGETVTITCRASGNIHNSLAWYQQKQGKSPQLLVHNAKTLADGVPSRFSGSGSGTQYSLKINSLQPEDFGSYYCQHFWSTPPFGGGTKLEIKR
notes: as for B1
For the molecule B4, the OD450 is 2.47 OD450 in [1]; 0.09 OD450 in [2]; 3.21 OD450 in assay [3]; 0.82 OD450 in [5]; 2.78 OD450 in assay [7]; 2.93 OD450 in assay [9]. The OD450 in assay [10] turned out to be 0.18 OD450. The “Proportion … (%)” value in [4] came out at 31%; in [6], 34%; in assay [8], 30%.

B5: F1.60.9 (antibody, human IgG1, kappa, V domains shown)
VH: QVQLKESGPGLVAPSQSLSITCTVSGLSLNNYGVSWVRQPPGKGLEWLGVIWGDGSTNYHSALISRLSISKDNSKSQVFLKLNSLHTDDTATYYCAINWGDYWGQGTTLIVSS
VL: DIKMTQSPSSMNASLGERVTITCKASQDINSYLSWFQQKPGKSPKILIYRANRLIDGVPSRFSGSGSGQDYSLTISSLEYEDMGIYYCLQYGVFPLTFGAGTKLELKR
notes: as for B1
Consider B5, for which the OD450 in assay [1] amounted to 0.05 OD450; in assay [2], 0.06 OD450; in assay [3] it was 0.09 OD450; in assay [5] it was 0.05 OD450; in [7], 0.06 OD450; in [9] it was 0.07 OD450. In [10], this molecule gave an OD450 of 0.06 OD450. In addition, the “Proportion … (%)” value in assay [4] amounted to 16%; in [6], 18%; in [8], 16%.

B6: F1.17.1 (antibody, human IgG1, kappa, V domains shown)
VH: QVQLKESGPGLVAPSQSLSITCTVSGFSLSRYTVHWVRQPPGKGLEWLGMIWGGGSTDYNSALKSRLSISKDNSKSQVFLKMNSLQTDDTAMYYCARPHDFDAGGFAYWGQGTLVTVSA
VL: QIVLTQSPAILSTSPGEKVTMTCSASSRVNYMYWYQQKPGSSPRLLIYDTSNLASGVPVRFSGSGSGTSYSLTISRMEAEDAATYYCQQWTSYPLTFGAGTKLELKR
notes: as for B1
Take B6: the OD450 in assay [1] came out at 1.75 OD450; in assay [2], 0.07 OD450; in assay [3], 1.91 OD450; in [5], 0.51 OD450; in assay [7] it was 1.99 OD450; in [9], 2.16 OD450. The molecule further gave an OD450 in assay [10] of 0.13 OD450. In addition, the results for the “Proportion … (%)” value in assay [4], in [6] and in [8] were 62%, 68% and 60%, respectively.

B7: F1.192.1 (antibody, human IgG1, kappa, V domains shown)
VH: AVQLQQSGVELVRPGASVKLSCTGSDFNIKEDYIHWVKQRPEQGLEWIGWIDPENGDTEYASKFQGKATITADTSSNTAYLQLSSLTSEDTAVYYCATYGSLDYWGQGTTLTVSS
VL: DIKMTQSPSSMYAFLGERVTITCKASQGINSFLTWFQQKPGKSPKTLIYRANRLVDGVPSRFSGSGSGQDYSLTISSLEYEDVGIYYCLQYDEFPRTFGGGTKLEIKR
notes: as for B1
On to B7, for which the OD450 in assay [1] amounted to 0.19 OD450; in assay [2] it was 0.07 OD450; in assay [3], 1.21 OD450; in assay [5], 0.07 OD450; in [7] it was 0.53 OD450; in [9], 0.84 OD450. Further, the OD450 in [10] turned out to be 0.07 OD450. The “Proportion … (%)” value in assay [4] was 30%; in assay [6], 38%; in assay [8], 22%.

B8: F1.216.2 (antibody, human IgG1, kappa, V domains shown)
VH: QVQLQQSGPEVVRPGASVKISCKASGYAFSSSWMNWMKQRPGKALEWIGRIYPGDGDTNYSGEFKVKATLTADKSSSTAYMQLSSLTSEDSAVYFCAREGSYYSNPWYFDYWGQGTTLTVSS
VL: DVLVTQTPLSLPVSLGDQASISCRSSQSIVQSNGDTYLEWYLQKPGQSPKLLIYKVSNRFSGVPDRFSGSGSGTDFTLKISRVEAEDLGVYYCFQGSHVPFTFGSGTKLEIKR
notes: as for B1
As for B8, the OD450 turned out to be 2.04 OD450 in assay [1]; 0.09 OD450 in assay [2]; 1.94 OD450 in assay [3]; 0.91 OD450 in assay [5]; 2.24 OD450 in assay [7]; 2.15 OD450 in [9]. The OD450 in assay [10] is 0.21 OD450. Moreover, the “Proportion … (%)” value in [4] is 25%; in assay [6] it was 34%; in assay [8], 22%.
